Legend:
Assay in all cases: holdup assay
Set-up in all cases: key: below the threshold = too weak to quantify, mostly under pKd 3.1 to 4
SNTG2, Q9NY99 = target: T1, SNTG2, Q9NY99
T1 sequence (Q9NY99 68-166, limits assumed, looked up): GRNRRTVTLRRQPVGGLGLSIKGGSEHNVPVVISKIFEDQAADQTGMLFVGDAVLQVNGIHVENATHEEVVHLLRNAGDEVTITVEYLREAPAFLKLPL

NHERF3_4, Q5T2W1 = target: T2, NHERF3_4, Q5T2W1
T2 sequence (Q5T2W1 373-468, limits assumed, looked up): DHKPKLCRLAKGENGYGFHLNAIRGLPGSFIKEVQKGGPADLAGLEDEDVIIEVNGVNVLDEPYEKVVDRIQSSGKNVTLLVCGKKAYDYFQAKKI

PDZRN3_1, Q9UPQ7 = target: T3, PDZRN3_1, Q9UPQ7
T3 sequence (Q9UPQ7 244-349, limits assumed, looked up): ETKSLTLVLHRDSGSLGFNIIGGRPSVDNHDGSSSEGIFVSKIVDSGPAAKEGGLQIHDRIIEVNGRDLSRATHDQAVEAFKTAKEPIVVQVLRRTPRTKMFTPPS

MAGI2_5, Q86UL8 = target: MAGI2_5, Q86UL8
MAGI2_5, Q86UL8, sequence (Q86UL8 915-1017): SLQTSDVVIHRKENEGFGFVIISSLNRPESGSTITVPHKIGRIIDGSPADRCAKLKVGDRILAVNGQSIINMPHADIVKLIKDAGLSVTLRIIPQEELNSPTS

IL16_3, Q14005 = target: IL16_3, Q14005
IL16_3, Q14005, sequence (Q14005 1107-1207): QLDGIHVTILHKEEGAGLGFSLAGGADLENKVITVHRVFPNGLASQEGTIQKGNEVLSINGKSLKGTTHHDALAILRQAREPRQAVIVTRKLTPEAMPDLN

DLG3_2, Q92796 = target: T4, DLG3_2, Q92796
T4 sequence (Q92796 221-321, limits assumed, looked up): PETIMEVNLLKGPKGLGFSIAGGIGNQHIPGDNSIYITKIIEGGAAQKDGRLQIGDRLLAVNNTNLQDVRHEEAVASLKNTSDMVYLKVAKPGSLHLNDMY

LIMK2, P53671 = target: LIMK2, P53671
LIMK2, P53671, sequence (P53671 143-248): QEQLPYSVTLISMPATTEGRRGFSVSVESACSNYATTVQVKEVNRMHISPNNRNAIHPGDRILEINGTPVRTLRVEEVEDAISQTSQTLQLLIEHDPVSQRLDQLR

PARD3B_1, Q8TEW8 = target: T5, PARD3B_1, Q8TEW8
T5 sequence (Q8TEW8 196-299, limits assumed, looked up): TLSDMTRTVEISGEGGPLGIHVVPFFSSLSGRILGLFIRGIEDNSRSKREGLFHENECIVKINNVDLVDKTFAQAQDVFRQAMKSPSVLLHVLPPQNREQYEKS

HTRA4, P83105 = target: T6, HTRA4, P83105
T6 sequence (P83105 378-476, limits assumed, looked up): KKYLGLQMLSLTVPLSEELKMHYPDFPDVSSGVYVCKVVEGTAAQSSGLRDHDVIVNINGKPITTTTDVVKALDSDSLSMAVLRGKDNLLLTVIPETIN

MAGI2_3, Q86UL8 = target: MAGI2_3, Q86UL8
MAGI2_3, Q86UL8, sequence (Q86UL8 600-682): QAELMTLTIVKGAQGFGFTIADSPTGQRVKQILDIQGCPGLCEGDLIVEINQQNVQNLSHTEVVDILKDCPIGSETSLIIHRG

FRMPD4, Q14CM0 = target: FRMPD4, Q14CM0
FRMPD4, Q14CM0, sequence (Q14CM0 67-160): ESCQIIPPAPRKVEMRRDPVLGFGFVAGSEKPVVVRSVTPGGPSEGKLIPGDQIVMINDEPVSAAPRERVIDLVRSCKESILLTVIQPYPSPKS

MAST1, Q9Y2H9 = target: MAST1, Q9Y2H9
MAST1, Q9Y2H9, sequence (Q9Y2H9 962-1065): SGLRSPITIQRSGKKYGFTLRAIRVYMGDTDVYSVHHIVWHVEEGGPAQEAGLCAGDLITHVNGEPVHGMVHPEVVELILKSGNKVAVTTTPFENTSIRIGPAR

DLG4_1, P78352 = target: DLG4_1, P78352
DLG4_1, P78352, sequence (P78352 62-152): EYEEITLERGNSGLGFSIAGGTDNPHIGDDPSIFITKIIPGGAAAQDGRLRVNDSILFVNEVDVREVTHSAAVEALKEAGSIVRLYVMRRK

NHERF2_2, Q15599 = target: NHERF2_2, Q15599
NHERF2_2, Q15599, sequence (Q15599 142-238): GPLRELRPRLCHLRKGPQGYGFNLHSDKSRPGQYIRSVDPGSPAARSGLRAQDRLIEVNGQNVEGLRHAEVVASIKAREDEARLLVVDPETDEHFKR

GRIP2_7, Q9C0E4 = target: GRIP2_7, Q9C0E4
GRIP2_7, Q9C0E4, sequence (Q9C0E4 934-1023): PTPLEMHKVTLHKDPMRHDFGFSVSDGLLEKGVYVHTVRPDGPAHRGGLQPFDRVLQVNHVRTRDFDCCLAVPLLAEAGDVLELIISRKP

RAPGEF6, Q8TEU7 = target: T7, RAPGEF6, Q8TEU7
T7 sequence (Q8TEU7 525-625, limits assumed, looked up): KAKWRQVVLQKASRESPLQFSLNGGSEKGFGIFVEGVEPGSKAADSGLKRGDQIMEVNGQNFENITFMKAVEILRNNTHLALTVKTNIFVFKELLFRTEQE

PICK1, Q9NRD5 = target: PICK1, Q9NRD5
PICK1, Q9NRD5, sequence (Q9NRD5 17-115): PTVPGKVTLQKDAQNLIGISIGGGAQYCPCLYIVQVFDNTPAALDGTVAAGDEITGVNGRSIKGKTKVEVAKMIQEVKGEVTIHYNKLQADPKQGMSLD

Inadl_9, Q8NI35 = target: Inadl_9, Q8NI35
Inadl_9, Q8NI35, sequence (Q8NI35 1530-1615): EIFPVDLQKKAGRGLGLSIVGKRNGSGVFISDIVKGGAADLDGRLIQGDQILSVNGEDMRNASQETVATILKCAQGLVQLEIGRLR

LNX1_1, Q8TBB1 = target: LNX1_1, Q8TBB1
LNX1_1, Q8TBB1, sequence (Q8TBB1 261-371): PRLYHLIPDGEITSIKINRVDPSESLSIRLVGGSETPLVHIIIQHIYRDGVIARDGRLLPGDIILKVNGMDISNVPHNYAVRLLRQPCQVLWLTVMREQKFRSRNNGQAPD

SCRIB_3, Q14160 = target: SCRIB_3, Q14160
SCRIB_3, Q14160, sequence (Q14160 999-1103): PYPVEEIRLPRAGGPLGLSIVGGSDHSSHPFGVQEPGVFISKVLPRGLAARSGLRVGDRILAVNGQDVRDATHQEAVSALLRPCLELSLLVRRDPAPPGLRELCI

Inadl_3, Q8NI35 = target: Inadl_3, Q8NI35
Inadl_3, Q8NI35, sequence (Q8NI35 359-469): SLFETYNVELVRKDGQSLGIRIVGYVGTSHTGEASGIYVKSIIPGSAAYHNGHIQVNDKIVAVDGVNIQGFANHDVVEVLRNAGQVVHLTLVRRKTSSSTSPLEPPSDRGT

HTRA1, Q92743 = target: HTRA1, Q92743
HTRA1, Q92743, sequence (Q92743 360-477): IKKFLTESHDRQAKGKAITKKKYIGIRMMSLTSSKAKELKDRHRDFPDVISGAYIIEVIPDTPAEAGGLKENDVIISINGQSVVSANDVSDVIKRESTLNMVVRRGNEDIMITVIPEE

SNTG1, Q9NSN8 = target: T8, SNTG1, Q9NSN8
T8 sequence (Q9NSN8 52-150, limits assumed, looked up): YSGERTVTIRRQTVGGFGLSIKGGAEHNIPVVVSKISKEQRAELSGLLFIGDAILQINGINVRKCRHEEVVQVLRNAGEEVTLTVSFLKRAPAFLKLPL

MAGI1_2, Q96QZ7 = target: MAGI1_2, Q96QZ7
MAGI1_2, Q96QZ7, sequence (Q96QZ7 456-580): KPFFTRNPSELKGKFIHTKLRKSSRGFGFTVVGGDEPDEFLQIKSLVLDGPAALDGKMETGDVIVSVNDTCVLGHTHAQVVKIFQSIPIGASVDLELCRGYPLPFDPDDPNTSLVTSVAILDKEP

NHERF4_2, Q86UT5 = target: NHERF4_2, Q86UT5
NHERF4_2, Q86UT5, sequence (Q86UT5 220-308): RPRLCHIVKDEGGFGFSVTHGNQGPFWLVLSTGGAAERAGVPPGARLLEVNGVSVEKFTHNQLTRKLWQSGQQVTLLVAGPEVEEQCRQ

MPP7, Q5T2T1 = target: T9, MPP7, Q5T2T1
T9 sequence (Q5T2T1 134-230, limits assumed, looked up): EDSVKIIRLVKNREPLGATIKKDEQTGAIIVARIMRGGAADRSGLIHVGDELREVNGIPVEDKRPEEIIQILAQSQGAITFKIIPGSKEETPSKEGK

LIN7A, O14910 = target: T10, LIN7A, O14910
T10 sequence (O14910 103-200, limits assumed, looked up): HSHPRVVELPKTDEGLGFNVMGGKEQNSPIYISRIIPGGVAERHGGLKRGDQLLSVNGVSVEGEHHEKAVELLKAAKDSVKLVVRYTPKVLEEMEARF

[1] = plain residues with an end cap or a label only (N-terminal biotin on a linker: ahx)
[2] = plain residues with an end cap or a label only (N-terminal biotin on a linker: ado-ado)

B1: NHERF2, Q15599 (peptide)
chain: NRKREIFSNF
pKd (SNTG2, Q9NY99; [1]): below the threshold | pKd (NHERF3_4, Q5T2W1; [1]): below the threshold | pKd (PDZRN3_1, Q9UPQ7; [1]): below the threshold | pKd (MAGI2_5, Q86UL8; [1]): below the threshold | pKd (IL16_3, Q14005; [1]): below the threshold | pKd (DLG3_2, Q92796; [1]): below the threshold | pKd (LIMK2, P53671; [1]): below the threshold | pKd (PARD3B_1, Q8TEW8; [1]): below the threshold | pKd (HTRA4, P83105; [1]): below the threshold | pKd (MAGI2_3, Q86UL8; [1]): below the threshold | pKd (FRMPD4, Q14CM0; [1]): below the threshold | pKd (MAST1, Q9Y2H9; [1]): below the threshold | pKd (DLG4_1, P78352; [1]): below the threshold | pKd (NHERF2_2, Q15599; [1]): below the threshold | pKd (GRIP2_7, Q9C0E4; [1]): below the threshold | pKd (RAPGEF6, Q8TEU7; [1]): below the threshold | pKd (PICK1, Q9NRD5; [1]): below the threshold | pKd (Inadl_9, Q8NI35; [1]): below the threshold | pKd (LNX1_1, Q8TBB1; [1]): below the threshold | pKd (SCRIB_3, Q14160; [1]): below the threshold | pKd (Inadl_3, Q8NI35; [1]): below the threshold | pKd (HTRA1, Q92743; [1]): below the threshold | pKd (SNTG1, Q9NSN8; [1]): below the threshold | pKd (MAGI1_2, Q96QZ7; [1]): below the threshold | pKd (NHERF4_2, Q86UT5; [1]): below the threshold | pKd (MPP7, Q5T2T1; [1]): below the threshold | pKd (LIN7A, O14910; [1]): below the threshold

B2: HPV49-L2, P36762 (peptide)
chain: RRRKRKRTYL
pKd (SNTG2, Q9NY99; [1]): 3.57 | pKd (NHERF3_4, Q5T2W1; [1]): 4 | pKd (PDZRN3_1, Q9UPQ7; [1]): 3.51 | pKd (MAGI2_5, Q86UL8; [1]): below the threshold | pKd (IL16_3, Q14005; [1]): below the threshold | pKd (DLG3_2, Q92796; [1]): below the threshold | pKd (LIMK2, P53671; [1]): below the threshold | pKd (PARD3B_1, Q8TEW8; [1]): 3.72 | pKd (HTRA4, P83105; [1]): 3.66 | pKd (MAGI2_3, Q86UL8; [1]): below the threshold | pKd (FRMPD4, Q14CM0; [1]): 3.53 | pKd (MAST1, Q9Y2H9; [1]): 4.21 | pKd (DLG4_1, P78352; [1]): 3.62 | pKd (NHERF2_2, Q15599; [1]): 3.49 | pKd (GRIP2_7, Q9C0E4; [1]): 3.68 | pKd (RAPGEF6, Q8TEU7; [1]): below the threshold | pKd (PICK1, Q9NRD5; [1]): 3.47 | pKd (Inadl_9, Q8NI35; [1]): below the threshold | pKd (LNX1_1, Q8TBB1; [1]): 3.63 | pKd (SCRIB_3, Q14160; [1]): 3.75 | pKd (Inadl_3, Q8NI35; [1]): 3.72 | pKd (HTRA1, Q92743; [1]): 3.99 | pKd (SNTG1, Q9NSN8; [1]): below the threshold | pKd (MAGI1_2, Q96QZ7; [1]): 5.71 | pKd (NHERF4_2, Q86UT5; [1]): below the threshold | pKd (MPP7, Q5T2T1; [1]): below the threshold | pKd (LIN7A, O14910; [1]): below the threshold

B3: PSCDBP, O60759 (peptide)
chain: RAVEEEESRF
pKd (SNTG2, Q9NY99; [1]): below the threshold | pKd (NHERF3_4, Q5T2W1; [1]): below the threshold | pKd (PDZRN3_1, Q9UPQ7; [1]): below the threshold | pKd (MAGI2_5, Q86UL8; [1]): 3.7 | pKd (IL16_3, Q14005; [1]): below the threshold | pKd (DLG3_2, Q92796; [1]): below the threshold | pKd (LIMK2, P53671; [1]): below the threshold | pKd (PARD3B_1, Q8TEW8; [1]): 4.06 | pKd (HTRA4, P83105; [1]): below the threshold | pKd (MAGI2_3, Q86UL8; [1]): below the threshold | pKd (FRMPD4, Q14CM0; [1]): below the threshold | pKd (MAST1, Q9Y2H9; [1]): 4.02 | pKd (DLG4_1, P78352; [1]): below the threshold | pKd (NHERF2_2, Q15599; [1]): 5 | pKd (GRIP2_7, Q9C0E4; [1]): below the threshold | pKd (RAPGEF6, Q8TEU7; [1]): below the threshold | pKd (PICK1, Q9NRD5; [1]): below the threshold | pKd (Inadl_9, Q8NI35; [1]): below the threshold | pKd (LNX1_1, Q8TBB1; [1]): below the threshold | pKd (SCRIB_3, Q14160; [1]): below the threshold | pKd (Inadl_3, Q8NI35; [1]): below the threshold | pKd (HTRA1, Q92743; [1]): below the threshold | pKd (SNTG1, Q9NSN8; [1]): below the threshold | pKd (MAGI1_2, Q96QZ7; [1]): below the threshold | pKd (NHERF4_2, Q86UT5; [1]): below the threshold | pKd (MPP7, Q5T2T1; [1]): below the threshold | pKd (LIN7A, O14910; [1]): below the threshold

B4: TRIM50, Q86XT4 (peptide)
chain: PLSPEQPTKL
pKd (SNTG2, Q9NY99; [2]): below the threshold | pKd (NHERF3_4, Q5T2W1; [2]): 3.7 | pKd (PDZRN3_1, Q9UPQ7; [2]): below the threshold | pKd (MAGI2_5, Q86UL8; [2]): below the threshold | pKd (IL16_3, Q14005; [2]): below the threshold | pKd (DLG3_2, Q92796; [2]): below the threshold | pKd (LIMK2, P53671; [2]): below the threshold | pKd (PARD3B_1, Q8TEW8; [2]): 4.06 | pKd (HTRA4, P83105; [2]): 3.75 | pKd (MAGI2_3, Q86UL8; [2]): below the threshold | pKd (FRMPD4, Q14CM0; [2]): 3.61 | pKd (MAST1, Q9Y2H9; [2]): 3.97 | pKd (DLG4_1, P78352; [2]): below the threshold | pKd (NHERF2_2, Q15599; [2]): 3.86 | pKd (GRIP2_7, Q9C0E4; [2]): below the threshold | pKd (RAPGEF6, Q8TEU7; [2]): below the threshold | pKd (PICK1, Q9NRD5; [2]): below the threshold | pKd (Inadl_9, Q8NI35; [2]): below the threshold | pKd (LNX1_1, Q8TBB1; [2]): below the threshold | pKd (SCRIB_3, Q14160; [2]): below the threshold | pKd (Inadl_3, Q8NI35; [2]): below the threshold | pKd (HTRA1, Q92743; [2]): below the threshold | pKd (SNTG1, Q9NSN8; [2]): below the threshold | pKd (MAGI1_2, Q96QZ7; [2]): below the threshold | pKd (NHERF4_2, Q86UT5; [2]): below the threshold | pKd (MPP7, Q5T2T1; [2]): below the threshold | pKd (LIN7A, O14910; [2]): below the threshold

— PMC9482650, “Quantitative fragmentomics allow affinity mapping of interactomes” (Nature Communications, 2022)
